Tests used:
[1] = molecular target: Dityrosine cross-linked Aβ42 dimer [Aβ(M1-42)]DiY; assay: SEC
[2] = molecular target: Dityrosine cross-linked Aβ42 dimer [Aβ(M1-42)]DiY; assay: centrifugation with thioflavin T read-out

- decrease of the dimer peak at t = max [1]: 40%
- ThT signal of the end-stage sample removed by centrifugation [2]: 80%
Substance: Dityrosine cross-linked Aβ42 dimer [Aβ(M1-42)]DiY (peptide)
